Data reported in US20170306005A1 (NASCIENT, published 2017).
Where a chain is given by its changes, count along the chain named.

What was measured:
[1] = target: T1, human tenascin-C rCd4-His-FBG (rat; human, UniProt P05540 207-392, limits assumed); assay: SPR off-rate screen, captured IgG4 supernatant, 25 C
T1 construct: domain: domains 3 and 4; C-terminal FBG fusion; biotinylated in the ELISA and HTRF screens; also called Hu TNC; human TNC rCd4-His-FBG; not shown: 6His tag
T1 sequence (chain (part 1 of 2)): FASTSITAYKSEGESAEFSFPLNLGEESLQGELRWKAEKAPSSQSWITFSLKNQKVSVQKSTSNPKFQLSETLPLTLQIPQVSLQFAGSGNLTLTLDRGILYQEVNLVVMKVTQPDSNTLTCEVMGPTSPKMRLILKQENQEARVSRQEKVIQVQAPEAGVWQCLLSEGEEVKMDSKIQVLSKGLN
T1 sequence (chain (part 2 of 2)): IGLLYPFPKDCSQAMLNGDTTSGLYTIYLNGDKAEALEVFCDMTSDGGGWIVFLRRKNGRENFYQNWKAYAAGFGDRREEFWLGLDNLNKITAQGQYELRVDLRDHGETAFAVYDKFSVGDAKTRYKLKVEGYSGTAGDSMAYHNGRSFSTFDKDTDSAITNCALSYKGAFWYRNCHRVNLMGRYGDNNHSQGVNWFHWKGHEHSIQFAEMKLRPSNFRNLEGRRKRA
Outline: (§1)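 SPR at 25 °C: IgG4 (S241P) from culture supernatant, diluted 1:2 in 2×PBS-T, captured on anti-human Fc surface; antigen injected at a fixed 15 nM (human and mouse TNC rCd4-His-FBG) or 100 nM (human TNR rCd4-His-FBG), 30 μl/min. Association 1 min, dissociation 5 min; off-rates from reference-subtracted 1:1 fits.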

[2] = target: T2, mouse tenascin-C rCd4-His-FBG (rat; mouse, UniProt P05540 207-392, limits assumed); assay: as above
T2 construct: domain: domains 3 and 4; C-terminal FBG fusion; biotinylated in the ELISA screen; also called Mu TNC; mouse TNC rCd4-His-FBG; not shown: 6His tag
T2 sequence (chain (part 1 of 2)): T1 sequence (chain (part 1 of 2))
T2 sequence (chain (part 2 of 2)): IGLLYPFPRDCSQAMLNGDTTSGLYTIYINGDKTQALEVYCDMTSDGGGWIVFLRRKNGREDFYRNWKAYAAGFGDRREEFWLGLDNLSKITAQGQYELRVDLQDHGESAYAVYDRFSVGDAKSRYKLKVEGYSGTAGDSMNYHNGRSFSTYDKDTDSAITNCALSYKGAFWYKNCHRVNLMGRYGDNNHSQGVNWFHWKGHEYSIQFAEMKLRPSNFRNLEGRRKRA
Outline: as §1

human Fc-His-FBG = target: T3, human Fc-His-FBG (human, UniProt P24821 1974-2201); assay: plate assay: inhibition of binding of 100 nM Fc-His-TNC-FBG to coated TLR4, against isotype control
T3 construct: C-terminal FBG fusion to human IgG1 Fc; also called Fc-His-huFBG; huFc-His-FBG; not shown: human IgG1 Fc tag; 6His tag
T3 sequence: T1 sequence (chain (part 2 of 2))
Experimental: FIG. 16B. […] Detection was carried out by successive incubation of antibody directed against the Fc portion of the protein, an anti-mouse HRP conjugated secondary antibody and TMB substrate.
Detection was carried out by successive incubation of antibody directed against the Fc portion of the protein, an anti-mouse HRP conjugated secondary antibody and TMB substrate.

[3] = target: T4, rat tenascin-C rCd4-His-FBG (rat, UniProt P05540 207-392, limits assumed); assay: SPR, captured purified IgG4, 37 C
T4 construct: domain: domains 3 and 4; C-terminal FBG fusion; also called Rat TNC; rat TNC rCD4-His-FBG; not shown: 6His tag
T4 sequence (chain (part 1 of 2)): T1 sequence (chain (part 1 of 2))
T4 sequence (chain (part 2 of 2)): T2 sequence (chain (part 2 of 2)) with A72T

koff [1]: < 1e-05 s⁻¹
koff [2]: 3.3e-06 s⁻¹
IC50 (human Fc-His-FBG): 44.5 nM
Kd [3]: 1.22 nM
koff [3]: 0.00473 s⁻¹
kon [3]: 3.89e+06 M⁻¹ s⁻¹
B1: 165_13_C3 human IgG4 (antibody, V domains shown)
VH: QVQLVESGGGLVQPGRSLRLSCAASGFTFDDYAMHWVRQAPGKGLEWVSGISGSGGSTYYADSVKGRFTISRDNAKNSLYLQMNSLRAEDTALYYCAKSYQSDEDAFDIWGQGTMVTVSS
VL: DIQMTQSPASLPTPVGDRVTITCRASQYIQGFLNWYQQKPGKAPKLLIYDASNLETGVPSRFSGSGSGTDFTLTISSLQPEDFATYYCQQSYSTPQTFGQGTKVDIKR
notes: also called IgG4 C3; C3 IgG4 MAb
